Here are results for one molecule from PMC10435448, “A RAD51–ADP double filament structure unveils the mechanism of filament dynamics in homologous recombination”.

The data set addresses hRAD51 wild-type (Homo sapiens, UniProt Q06609 1-339). As to the kind of experiment: cryo-EM structure (3.1 A); 1 mM ADP, 5 mM CaCl2, 2.5 mM MgCl2; ssDNA density weak and diffuse; EMSA: 35 mM Tris-HCl pH 7.5, 1 mM DTT, 10 mM MgCl2, 100 ng/ul BSA, 50 mM KCl, 2 mM ADP, 37 C 10 min, 2% agarose TAE at 4 C; cryo-EM: 35 mM Tris-HCl pH 7.5, 108. The following applies: protein: recombinant; tags: none stated (pET11, untagged purification); chain copies: 10; single strand.

Chain of hRAD51 wild-type (Q06609 whole entry): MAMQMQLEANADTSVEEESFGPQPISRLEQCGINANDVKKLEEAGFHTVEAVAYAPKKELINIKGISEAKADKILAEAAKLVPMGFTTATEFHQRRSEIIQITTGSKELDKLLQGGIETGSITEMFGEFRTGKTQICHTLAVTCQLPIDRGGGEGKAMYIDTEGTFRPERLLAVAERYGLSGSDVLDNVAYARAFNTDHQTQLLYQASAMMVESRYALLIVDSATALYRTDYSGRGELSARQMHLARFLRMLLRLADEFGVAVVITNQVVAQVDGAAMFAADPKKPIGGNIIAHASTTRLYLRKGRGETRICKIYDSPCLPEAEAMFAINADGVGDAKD

B1: Oligo 1 (80 nt ssDNA), unlabeled (ssDNA)
DNA: TTATGTTCATTTTTTATATCCTTTACTTTATTTTCTCTGTTTATTCATTTACTTATTTTGTATTATCCTTATCTTATTTA
On to B1, for which the binding result is “binds”.
